In article PMC5683061:

How the values were obtained:
[1] = target: Ferredoxin:NADP+ oxidoreductase (FNR), C. reinhardtii, recombinant soluble (C. reinhardtii) (UniProt P53991)
[2] = target: Ferredoxin:NADP+ oxidoreductase (FNR), endogenous, complex-associated (C. reinhardtii (endogenous in strain cc124)) (UniProt P53991)

light-dependent NADPH production rate with FDX1 relative to FDX2 (FDX1/FDX2), PSI fractions with added soluble FNR (0.5 µM), 4 µM FDX [1]: 2.6 fold
light-dependent NADPH production rate with FDX1 relative to FDX2 (FDX1/FDX2), PSI–FNR fractions (complex-associated FNR), 4 µM FDX [2]: 23 fold
Substance: Ferredoxin 1 (FDX1), C. reinhardtii (natural protein)
